Data published in US20050112555A1, “Cytidine deaminase activators, deoxycytidine deaminase activators, Vif antagonists, and methods of screening for molecules thereof” (priority 2003, published 2005).
Like-named read-outs stand apart in the source and are kept apart here.

Tests used:
[1] = test system: reporter apoB mRNA site C6666; experiment: Poisoned primer extension editing assay of reporter apoB mRNA in yeast
vif− HIV-1 particles = type: cell-based
[2] = test system: pseudotyped HIV-1 viral particles; type: cell-based; settings: vs control 293T cells with pIRES-P vector
[3] = test system: HIV-1 Gag-Pol mRNA (GP-RNA region); experiment: Northern blot of viral Gag-Pol poly A+ RNA abundance in 293T cells; type: cell-based; settings: ΔVif vs Vif+ provirus, 293T-CEM15
HIV-1 GP-RNA = experiment: UV crosslinking RNA binding assay, HIV-1 GP-RNA; settings: recombinant CEM15 1, 2 and 4 μg; 20 fmol radiolabeled GP-RNA
apoB RNA = experiment: UV crosslinking RNA binding assay, apoB RNA; settings: recombinant CEM15; 20 fmol radiolabeled apoB RNA
HIV-1 p24 and RT protein = experiment: Western blot of HIV-1 proteins in proviral-transfected 293T cell lysates; type: cell-based; settings: ΔVif proviral DNA, 72 h, vs control pIRES-P cells
[4] = overexpressed in yeast, late log phase growth with galactose feeding

B1: CDA from E. coli: dimeric cytidine deaminase from E. coli, equivalent to PDB entry 1AF2 (protein, UniProt P0ABF6 1-294, looked up)
Cytidine deaminase: MHPRFQTAFAQLADNLQSALEPILADKYFPALLTGEQVSSLKSATGLDEDALAFALLPLAAACARTPLSNFNVGAIARGVSGTWYFGANMEFIGATMQQTVHAEQSAISHAWLSGEKALAAITVNYTPCGHCRQFMNELNSGLDLRIHLPGREAHALRDYLPDAFGPKDLEIKTLLMDEQDHGYALTGDALSQAAIAAANRSHMPYSKSPSGVALECKDGRIFSGSYAENAAFNPTLPPLQGALILLNLKGYDYPDIQRAVLAEKADAPLIQWDATSATLKALGCHSIDRVLLA
In the case of B1, the “editing activity on reporter apoB mRNA (in words)” value ([1]; expressed in yeast) is reported as “incapable of editing on the reporter substrate”.

B2: CEM15: human cytidine deaminase (APOBEC-3G) that reduces retroviral infectivity; HA-tagged, stably expressed in 293T cells or recombinant (protein)
chain: MKPHFRNTVERMYRDTFSYNFYNRPILSRRNTVWLCYEVKTKGPSRPPLDAKIFRGQVYSELKYHPEMRFFHWFSKWRKLHRDQEYEVTWYISWSPCTKCTRDMATFLAEDPKVTLTIFVARLYYFWDPDYQEALRSLCQKRDGPRATMKIMNYDEFQHCWSKFVYSQRELFEPWNNLPKYYILLHIMLGEILRHSMDPPTFTFNFNNEPWVRGRHETYLCYEVERMHNDTWVLLNQRRGFLCNQAPHKHGFLEGRHAELCFLDVIPFWKLDLDQDYRVTCFTSWSPCFSCAQEMAKFISKNKHVSLCIFTARIYDDQGRCQEGLRTLAEAGAKISIMTYSEFKHCWDTFVDHQGCPFQPWDGLDEHSQDLSGRLRAILQNQEN
modifications: left off: small tags and cut ends
notes: human cytidine deaminase (APOBEC-3G) that reduces retroviral infectivity; HA-tagged, stably expressed in 293T cells or recombinant
With B2 the “GFP expression from vif−, CEM15+ particles” value (vif− HIV-1 particles) was “indistinguishable from background fluorescence in control cells”, the “decrease in Vif− viral infectivity” value (vif− HIV-1 particles) was at least 100 fold and the “reduction of viral particle production” value ([2]; Vif+ provirus) was 5 fold. The “reduction of viral particle production” value ([2]; ΔVif provirus (absence of Vif)) was 100 fold, the “depletion of viral RNA levels” value ([3]; 24 h post-transfection) was 2 fold and the “depletion of viral RNA levels” value ([3]; 48 h post-transfection) was 9 fold. For the same molecule, the “depletion of viral RNA levels” value ([3]; 72 h post-transfection) was 56 fold, the “RNA binding (UV crosslinking)” value (HIV-1 GP-RNA) was “bound to radiolabeled HIV-1 GP-RNA in concentration dependent manner” and the “RNA binding (UV crosslinking), yield of complexes compared with GP-RNA” value (apoB RNA) was “the yield of complexes was similar”. The “HIV-1 p24 and RT protein abundance” value (HIV-1 p24 and RT protein) was “marked reduction”.

B3: Cdd1: tetrameric cytidine deaminase from S. cerevisiae with RNA editing activity (protein, UniProt Q06549 1-142, looked up)
Cytidine deaminase: MKVGGIEDRQLEALKRAALKACELSYSPYSHFRVGCSILTNNDVIFTGANVENASYSNCICAERSAMIQVLMAGHRSGWKCMVICGDSEDQCVSPCGVCRQFINEFVVKDFPIVMLNSTGSRSKVMTMGELLPMAFGPSHLN
For B3, the “C to U editing of reporter apoB mRNA at site C6666” value [1, 4] was 6.7% and the “editing level relative to negative control (empty vector)” value [1, 4] was about 10 ×.
